Reference: US20250263482A1

Target: human CLDN18.2 expressed on cells (human)
Assay: cell-based or functional assay

ADCC on KATOIII CLDN18.2 cells, LDH: EC50 (nM), run A: 0.12 nM | ADCC on KATOIII CLDN18.2 cells, LDH: EC50 (nM), run B: 0.22 nM | ADCC on KATOIII CLDN18.2 cells, LDH: EC50 (nM), run C: 0.27 nM | ADCC on NCI-N87 CLDN18.2 cells, LDH: EC50 (nM), run A: 0.057 nM | ADCC on NCI-N87 CLDN18.2 cells, LDH: EC50 (nM), run B: 0.082 nM | ADCC on NCI-N87 CLDN18.2 cells, LDH: EC50 (nM), run C: 0.1 nM | CDC on CT26 CLDN18.2 cells, LDH: EC50 (nM), run A: 11.5 nM | CDC on CT26 CLDN18.2 cells, LDH: EC50 (nM), run B: 10.7 nM | CDC on CT26 CLDN18.2 cells, LDH: EC50 (nM), run C: 11.9 nM | CDC on KATOIII CLDN18.2 cells, LDH: EC50 (nM), run A: 38.1 nM | CDC on KATOIII CLDN18.2 cells, LDH: EC50 (nM), run B: 22.7 nM | CDC on KATOIII CLDN18.2 cells, LDH: EC50 (nM), run C: 27.5 nM
B1: reference mAb (IMAB362, Ganymed) (antibody, INN chains, looked up, V domains shown)
VH: QVQLQQPGAELVRPGASVKLSCKASGYTFTSYWINWVKQRPGQGLEWIGNIYPSDSYTNYNQKFKDKATLTVDKSSSTAYMQLSSPTSEDSAVYYCTRSWRGNSFDYWGQGTTLTVSS
VL: DIVMTQSPSSLTVTAGEKVTMSCKSSQSLLNSGNQKNYLTWYQQKPGQPPKLLIYWASTRESGVPDRFTGSGSGTDFTLTISSVQAEDLAVYYCQNDYSYPFTFGSGTKLEIKR
ADCC on KATOIII CLDN18.2 cells, LDH: max (% cytotoxity), run A: 27.9% | ADCC on KATOIII CLDN18.2 cells, LDH: max (% cytotoxity), run B: 24.5% | ADCC on KATOIII CLDN18.2 cells, LDH: max (% cytotoxity), run C: 24.5% | ADCC on NCI-N87 CLDN18.2 cells, LDH: max (% cytotoxity), run A: 26.1% | ADCC on NCI-N87 CLDN18.2 cells, LDH: max (% cytotoxity), run B: 22.1% | ADCC on NCI-N87 CLDN18.2 cells, LDH: max (% cytotoxity), run C: 21.1% | CDC on CT26 CLDN18.2 cells, LDH: max (% cytotoxity), run A: 72.5% | CDC on CT26 CLDN18.2 cells, LDH: max (% cytotoxity), run B: 54.7% | CDC on CT26 CLDN18.2 cells, LDH: max (% cytotoxity), run C: 51.6% | CDC on KATOIII CLDN18.2 cells, LDH: max (% cytotoxity), run A: 29.7% | CDC on KATOIII CLDN18.2 cells, LDH: max (% cytotoxity), run B: 46% | CDC on KATOIII CLDN18.2 cells, LDH: max (% cytotoxity), run C: 34.9%
